This is an account of results in publication PMC2173853 (The Journal of Cell Biology, 2002).

Holding throughout (experiment): pull-down
The target in assay [1] is T1, GST–Sec22p (yeast, UniProt P22214).
T1 sequence: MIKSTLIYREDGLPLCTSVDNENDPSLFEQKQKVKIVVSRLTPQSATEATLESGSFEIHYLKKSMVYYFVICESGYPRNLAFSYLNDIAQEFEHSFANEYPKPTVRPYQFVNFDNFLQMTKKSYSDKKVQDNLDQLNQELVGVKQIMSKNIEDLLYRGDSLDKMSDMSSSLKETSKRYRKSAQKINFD

Assay [2] deals with T1, GST–Sec22p. This is another data set of the same source.
For assay [3], the target named is T1, GST–Sec22p. The source holds these as a separate data set.
The target of assay [4] is T1, GST–Sec22p. The source holds these as a separate data set.
In assay [5] the target is T2, Sly1p cleaved from purified GST–Sly1p (untagged soluble Sly1p) (S. cerevisiae, UniProt P22213 1-666).
T2 sequence: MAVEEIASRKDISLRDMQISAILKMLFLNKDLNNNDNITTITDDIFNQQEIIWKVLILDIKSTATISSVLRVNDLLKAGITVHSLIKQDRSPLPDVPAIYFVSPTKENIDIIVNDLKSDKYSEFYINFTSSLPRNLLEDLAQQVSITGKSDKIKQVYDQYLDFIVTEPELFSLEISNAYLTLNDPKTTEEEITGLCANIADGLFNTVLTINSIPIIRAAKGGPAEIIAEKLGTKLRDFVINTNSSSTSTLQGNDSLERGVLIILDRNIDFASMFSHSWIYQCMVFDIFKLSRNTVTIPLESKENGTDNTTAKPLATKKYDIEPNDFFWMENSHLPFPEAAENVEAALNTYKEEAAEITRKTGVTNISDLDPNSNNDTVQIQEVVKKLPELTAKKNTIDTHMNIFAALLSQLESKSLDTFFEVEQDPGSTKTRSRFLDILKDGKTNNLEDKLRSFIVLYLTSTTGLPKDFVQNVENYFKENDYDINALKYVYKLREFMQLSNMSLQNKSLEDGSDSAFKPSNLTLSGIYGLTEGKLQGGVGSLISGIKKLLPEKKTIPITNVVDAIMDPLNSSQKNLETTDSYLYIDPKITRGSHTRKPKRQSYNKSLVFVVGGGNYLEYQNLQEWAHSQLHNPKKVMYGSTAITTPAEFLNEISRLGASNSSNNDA

For assay [6], the target named is T3, preassembled SNARE complex of GST–Sec22p, Sed5p, Bos1p and Bet1p (yeast, UniProt P22214;Q01590;P25385;P22804).
T3 sequence 1: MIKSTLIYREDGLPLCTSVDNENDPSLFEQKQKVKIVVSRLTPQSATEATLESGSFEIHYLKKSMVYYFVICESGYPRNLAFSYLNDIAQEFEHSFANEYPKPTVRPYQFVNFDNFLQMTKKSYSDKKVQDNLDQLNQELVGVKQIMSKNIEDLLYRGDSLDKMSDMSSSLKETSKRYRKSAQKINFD
T3 sequence 2: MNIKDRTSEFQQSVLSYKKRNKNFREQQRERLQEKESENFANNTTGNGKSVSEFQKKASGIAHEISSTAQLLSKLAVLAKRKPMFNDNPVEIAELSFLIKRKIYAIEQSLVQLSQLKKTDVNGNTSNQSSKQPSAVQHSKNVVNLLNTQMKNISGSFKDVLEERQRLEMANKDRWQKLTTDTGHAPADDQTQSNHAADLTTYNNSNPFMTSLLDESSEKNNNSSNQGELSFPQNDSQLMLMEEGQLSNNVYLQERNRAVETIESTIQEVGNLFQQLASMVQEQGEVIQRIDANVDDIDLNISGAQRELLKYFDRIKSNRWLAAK
T3 sequence 3: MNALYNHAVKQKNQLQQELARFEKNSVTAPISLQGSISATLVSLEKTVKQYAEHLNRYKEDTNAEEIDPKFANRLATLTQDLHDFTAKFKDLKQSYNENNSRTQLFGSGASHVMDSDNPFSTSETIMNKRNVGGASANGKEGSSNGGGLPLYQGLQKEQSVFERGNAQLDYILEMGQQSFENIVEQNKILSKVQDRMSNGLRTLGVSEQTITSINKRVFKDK
T3 sequence 4: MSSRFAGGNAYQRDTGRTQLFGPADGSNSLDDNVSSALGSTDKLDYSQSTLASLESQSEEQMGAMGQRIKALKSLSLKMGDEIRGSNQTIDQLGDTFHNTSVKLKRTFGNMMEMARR

In assay [7] the target is T4, GST–Sed5p (entire cytosolic region) (S. cerevisiae, UniProt Q01590 1-324).
T4 sequence: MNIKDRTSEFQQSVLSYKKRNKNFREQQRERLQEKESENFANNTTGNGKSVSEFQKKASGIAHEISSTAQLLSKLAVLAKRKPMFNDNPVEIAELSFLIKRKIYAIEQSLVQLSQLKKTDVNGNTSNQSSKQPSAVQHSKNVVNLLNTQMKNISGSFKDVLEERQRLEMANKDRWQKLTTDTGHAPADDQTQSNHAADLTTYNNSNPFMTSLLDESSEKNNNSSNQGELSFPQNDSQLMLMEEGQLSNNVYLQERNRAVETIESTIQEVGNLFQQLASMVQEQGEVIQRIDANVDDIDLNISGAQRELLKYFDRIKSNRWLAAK

Where two headings read alike, the source gives them in different places.

B1: His6-Sed5p (NH2-terminally His6-tagged Sed5p lacking the COOH-terminal membrane anchor) (domain or fragment)
chain: MNIKDRTSEFQQSVLSYKKRNKNFREQQRERLQEKESENFANNTTGNGKSVSEFQKKASGIAHEISSTAQLLSKLAVLAKRKPMFNDNPVEIAELSFLIKRKIYAIEQSLVQLSQLKKTDVNGNTSNQSSKQPSAVQHSKNVVNLLNTQMKNISGSFKDVLEERQRLEMANKDRWQKLTTDTGHAPADDQTQSNHAADLTTYNNSNPFMTSLLDESSEKNNNSSNQGELSFPQNDSQLMLMEEGQLSNNVYLQERNRAVETIESTIQEVGNLFQQLASMVQEQGEVIQRIDANVDDIDLNISGAQRELLKYFDRIKSNRWLAAK
A word on the stoichiometry N: it is the number of molecules, sites or subunits per partner or assembly. As to B1, the “stoichiometry of Sly1p–Sed5p–Bos1p–Sec22p–Bet1p in the isolated complex” value in assay [1] is 1.2 molar ratio (GST–Sec22p = 1.4). Moreover, the “stoichiometry N” value in assay [2] amounted to 0.5 Sed5p per Sec22p; in assay [3] it was 1.1 Sed5p per Sec22p; in assay [4], 0.3 Sed5p per Sec22p.

B2: GST–Sed5N (NH2-terminal domain) (domain or fragment)
chain: MNIKDRTSEFQQSVLSYKKRNKNFREQQRERLQEKESENFANNTTGNGKSVSEFQKKASGIAHEISSTAQLLSKLAVLAKRKPMFNDNPVEIAELSFLIKRKIYAIEQSLVQLSQLKKTDVNGNTSNQSSKQPSAVQHSKNVVNLLNTQMKNISGSFKDVLEERQRLEMANKDRWQKLTTDTGHAPADDQTQSNHAADLTTYNNSNPFMTSLLDESSEKNNNSSNQGELSFPQNDSQLMLMEEGQLSNNV
On to B2, for which the binding result in assay [5] is reported as “binds”.

B3: His10-Sly1p (NH2-terminally His10-tagged full-length Sly1p) (natural protein)
chain: MAVEEIASRKDISLRDMQISAILKMLFLNKDLNNNDNITTITDDIFNQQEIIWKVLILDIKSTATISSVLRVNDLLKAGITVHSLIKQDRSPLPDVPAIYFVSPTKENIDIIVNDLKSDKYSEFYINFTSSLPRNLLEDLAQQVSITGKSDKIKQVYDQYLDFIVTEPELFSLEISNAYLTLNDPKTTEEEITGLCANIADGLFNTVLTINSIPIIRAAKGGPAEIIAEKLGTKLRDFVINTNSSSTSTLQGNDSLERGVLIILDRNIDFASMFSHSWIYQCMVFDIFKLSRNTVTIPLESKENGTDNTTAKPLATKKYDIEPNDFFWMENSHLPFPEAAENVEAALNTYKEEAAEITRKTGVTNISDLDPNSNNDTVQIQEVVKKLPELTAKKNTIDTHMNIFAALLSQLESKSLDTFFEVEQDPGSTKTRSRFLDILKDGKTNNLEDKLRSFIVLYLTSTTGLPKDFVQNVENYFKENDYDINALKYVYKLREFMQLSNMSLQNKSLEDGSDSAFKPSNLTLSGIYGLTEGKLQGGVGSLISGIKKLLPEKKTIPITNVVDAIMDPLNSSQKNLETTDSYLYIDPKITRGSHTRKPKRQSYNKSLVFVVGGGNYLEYQNLQEWAHSQLHNPKKVMYGSTAITTPAEFLNEISRLGASNSSNNDA
Consider B3, for which, in assay [6], the “stoichiometry of Sly1p–Sed5p–Bos1p–Sec22p–Bet1p in the isolated complex” value was 1 molar ratio (GST–Sec22p = 1.4). In addition, the “stoichiometry N” value in assay [7] is 1.2 per Sed5p.

B4: preformed Sed5p–Sly1p heterodimer in solution (His-Sly1p–His-Sed5p) (complex)
chain 1: MAVEEIASRKDISLRDMQISAILKMLFLNKDLNNNDNITTITDDIFNQQEIIWKVLILDIKSTATISSVLRVNDLLKAGITVHSLIKQDRSPLPDVPAIYFVSPTKENIDIIVNDLKSDKYSEFYINFTSSLPRNLLEDLAQQVSITGKSDKIKQVYDQYLDFIVTEPELFSLEISNAYLTLNDPKTTEEEITGLCANIADGLFNTVLTINSIPIIRAAKGGPAEIIAEKLGTKLRDFVINTNSSSTSTLQGNDSLERGVLIILDRNIDFASMFSHSWIYQCMVFDIFKLSRNTVTIPLESKENGTDNTTAKPLATKKYDIEPNDFFWMENSHLPFPEAAENVEAALNTYKEEAAEITRKTGVTNISDLDPNSNNDTVQIQEVVKKLPELTAKKNTIDTHMNIFAALLSQLESKSLDTFFEVEQDPGSTKTRSRFLDILKDGKTNNLEDKLRSFIVLYLTSTTGLPKDFVQNVENYFKENDYDINALKYVYKLREFMQLSNMSLQNKSLEDGSDSAFKPSNLTLSGIYGLTEGKLQGGVGSLISGIKKLLPEKKTIPITNVVDAIMDPLNSSQKNLETTDSYLYIDPKITRGSHTRKPKRQSYNKSLVFVVGGGNYLEYQNLQEWAHSQLHNPKKVMYGSTAITTPAEFLNEISRLGASNSSNNDA
chain 2: MNIKDRTSEFQQSVLSYKKRNKNFREQQRERLQEKESENFANNTTGNGKSVSEFQKKASGIAHEISSTAQLLSKLAVLAKRKPMFNDNPVEIAELSFLIKRKIYAIEQSLVQLSQLKKTDVNGNTSNQSSKQPSAVQHSKNVVNLLNTQMKNISGSFKDVLEERQRLEMANKDRWQKLTTDTGHAPADDQTQSNHAADLTTYNNSNPFMTSLLDESSEKNNNSSNQGELSFPQNDSQLMLMEEGQLSNNVYLQERNRAVETIESTIQEVGNLFQQLASMVQEQGEVIQRIDANVDDIDLNISGAQRELLKYFDRIKSNRWLAAK
Consider B4, for which the “stoichiometry N” value in assay [2] was 0.44 Sed5p per Sec22p; in assay [3] it was 0.99 Sed5p per Sec22p; in assay [4] it was 0.3 Sed5p per Sec22p.
